Laboratory results as given in patent US20190177400A1, “BIOLOGICAL UPGRADING OF HYDROCARBON STREAMS WITH NICKEL-BINDING PROTEINS” (ExxonMobil Research and Engineering Company, priority 2017, published 2019).
Where two headings read alike, the source gives them in different places.

Experiments:
[1] = UV-VIS screening of binding and demetallation of Ni(II)-protoporphyrin (IX); assay type: biochemical; settings: 50 μM porphyrin, 24 hrs, room temperature
Experimental: (§1) Three nickel- and one vanadium-containing model porphyrins (Ni(II)-protoporphyrin (IX); Ni(II)-meso-tetra-(4-carboxyphenyl) porphine; Ni(II)-meso-tetra-(N-methyl-4-pyridyl) porphine tetrachloride; & VO-meso-tetra-(N-methyl-4-pyridyl) porphine tetrachloride) were chosen as test substrates for the eight representative NBPs. […] The proteins' nickel- and vanadium-binding capabilities were assayed in a single phase, aqueous environment to eliminate mass transfer limitations that occur between multiple phases and stressful non-aqueous to conditions that may change protein structure and/or inhibit function. This approach minimizes false-negative results to maximize the number of potential protein candidates that can be identified.
A shift in the wavelength of maximal absorbance, commonly referred to as the “Soret band,” indicates a change in porphyrin conformation or a protein-porphyrin interaction.
(§2) To prepare crude protein, aliquots were thawed on ice and diluted 4-fold with protein assay buffer (PAB). To isolate purified nickel-binding proteins, protein aliquots were thawed on ice and proteins of interest were purified by HIS-tag-Ni-NTA column affinity followed by size exclusion chromatography with PD-10 desalting columns. Purified protein was eluted in PAB, collected in the first 2 mL PD-10 column flow-through fraction. Relative to the initial protein concentration, samples were diluted 4-fold to parallel crude protein samples.
(§3) Amber tubes were used for all assays to protect samples from light. Crude and purified protein samples were combined with porphyrin substrates, to achieve final concentrations in Table 3, and total assay volumes were raised to 10 mL with Tris buffer. Absorbance of a 2.4 mL sample was measured in a 1 cm quartz cuvette, at room temperature, 1 nm resolution, and 0.7 sec. integration time on an Evolution201® UV-VIS spectrophotometer with Thermo INSIGHT® software. Samples were incubated for 24 hrs. at room temperature and 75 RPM and their final UV-VIS absorbance spectra was measured. An absorbance baseline was collected using Tris buffer at the beginning of each time point and 1% error was observed between technical replicates.
(§4) Porphyrin Demetallation Calculation was calculated according to the formula (EVf−EXPf)÷EVo=% specific demetallation.

[2] = cited from earlier work
[3] = UV-VIS screening of binding and demetallation of Ni(II)-meso-tetra-(4-carboxyphenyl) porphine; assay type: biochemical; settings: 10 μM porphyrin, 24 hrs
Experimental: as §1
UV-VIS spectroscopy was used for initial screening of protein activity against numerous model compounds because each model porphyrin has a characteristic UV-VIS absorbance spectrum. A shift in the wavelength of maximal absorbance, commonly referred to as the “Soret band,” indicates a change in porphyrin conformation or a protein-porphyrin interaction.
as §2
as §3, with “replicates. Crude, empty pET28b vector (EV) strain lysate protein and PAB only controls were run in parallel with experimental samples (EXP) for each porphyrin.” for “replicates.”
as §4

[4] = selective, repetitive treatment; cited from earlier work
[5] = UV-VIS screening of binding and demetallation of VO-meso-tetra-(N-methyl-4-pyridyl) porphine tetrachloride; assay type: biochemical; settings: crude and purified protein, 10 μM porphyrin, 24 hrs
Experimental: as §1, with “This approach minimizes false-negative results to maximize the number of potential protein candidates that can be identified.” left out
(§5) UV-VIS spectroscopy was used for initial screening of protein activity against numerous model compounds because each model porphyrin has a characteristic UV-VIS absorbance spectrum. A shift in the wavelength of maximal absorbance, commonly referred to as the “Soret band,” indicates a change in porphyrin conformation or a protein-porphyrin interaction. […]
(§6) Amber tubes were used for all assays to protect samples from light. […] Absorbance of a 2.4 mL sample was measured in a 1 cm quartz cuvette, at room temperature, 1 nm resolution, and 0.7 sec. integration time on an Evolution201® UV-VIS spectrophotometer with Thermo INSIGHT® software. Samples were incubated for 24 hrs. at room temperature and 75 RPM and their final UV-VIS absorbance spectra was measured. […]

[6] = UV-VIS screening of binding and demetallation of Ni(II)-meso-tetra-(N-methyl-4-pyridyl) porphine tetrachloride; assay type: biochemical; settings: crude and purified protein, 10 μM porphyrin, 24 hrs
Experimental: as §1, with “This approach minimizes false-negative results to maximize the number of potential protein candidates that can be identified.” left out
as §5, §6

[7] = site (24-His rich N-terminus; His2 and Glu2; micromolar Kd sites)

| Molecule | reduction of Ni(II)-protoporphyrin (IX) Soret band (specific demetallation) ([1]; crude protein lysate) | reduction of Ni(II)-protoporphyrin (IX) Soret band (specific demetallation) ([1]; purified protein) | binding / demetallation (change of Soret band) ([3]; crude and purified protein) | other results |
| --- | --- | --- | --- | --- |
| Hpn: nickel storage protein from H. pylori, SEQ ID NO 8; very small, histidine rich (MAHHEEQHGGHHHHHHHTHHHHYHGGEHHHHHHSSHHEEGCCSTSDSHHQEEGCCHGHHE; listed as Helicobacter pylori) | did not affect the Soret band | – | – | affinities for nickel (II) ions ([2]; short repeating motifs, reversible binding): micromolar; binding / demetallation (change of Soret band) ([3]; crude lysate only): did not affect the Soret band |
| myoglobin conjugated to activated cellulose: myoglobin conjugated to activated cellulose, reported by Smith et al. (conjugate, UniProt P68082 2-154, looked up, conjugated to activated cellulose) Myoglobin: GLSDGEWQQVLNVWGKVEADIAGHGQEVLIRLFTGHPETLEKFDKFKHLKTEAEMKASEDLKKHGTVVLTALGGILKKKGHHEAELKPLAQSHATKHKIPIKYLEFISDAIIHVLHSKHPGDFGADAQGAMTKALELFRNDIAAKYKELGFQG | – | – | – | removal of V, Ni porphyrins [4]: up to 22% |
| NikR: metalloregulator from H. pylori, SEQ ID NO 7 (protein, listed as Escherichia coli) MRLLHTMLRVGDLQRSIDFYTKVLGMKLLRTSENPEYKYSLAFVGYGPETEEAVIELTYNWGVDKYELGTAYGHIALSVDNAAEACEKIRQNGGNVTREAGPVKGGTTVIAFVEDPDGYKIELIEEKDAGRGLGN | remained unchanged | 56% | Neither binding to nor demetallation was observed | Kd of Ni-binding ([2]; 4 Ni (II) per complex, coordinated by His88, His99, His101 & Cys107): nanomolar Kd; Ni-binding: Ni (II) ions bound ([2]; per complex, nanomolar Kd sites): 4 Ni (II) per Ni (II) per complex; Kd of Ni-binding ([2]; up to 10 Ni (II) sites): micromolar Kd |
| B. japonicum HypB: nickel chaperone HypB from B. japonicum, SEQ ID NO 3 (protein, listed as Helicobacter pylori) MHEYSVVSSLIALCEEHAKKNQAHKIERVVVGIGERSAMDKSLFVSAFETFREESLVCKDAVLDIVDEKVELECKDCSHVFKPNALDYGVCEKCHSKNVVITQGNEMRLLSLEMLAE | 29% | 99% | Neither binding nor demetallation was observed | binding / demetallation (change of Soret band) [5]: Neither binding to nor demetallation of these substrates was observed; binding / demetallation (change of Soret band) [6]: Neither binding to nor demetallation of these substrates was observed; Ni-binding: Ni (II) ions bound [2, 7]: 9 Ni (II) on 24- |
| UreE: nickel chaperone from E. aerogenes, SEQ ID NO 5 (protein, Enterobacter aerogenes) MLYLTQRLEIPAAATASVTLPIDVRVKSRVKVTLNDGRDAGLLLPRGLLLRGGDVLSNEEGTEFVQVIAADEEVSVVRCDDPFMLAKACYHLGNRHVPLQIMPGELRYHHDHVLDDMLRQFGLTVTFGQLPFEPEAGAYASESHGHHHAHHDHHAHSH | remained unchanged | 17% | Neither binding nor demetallation | Ni-binding: Ni (II) ions bound ([2]; per dimer): 6 Ni (II) per Ni (II) per dimer |
| GloA: nickel metalloenzyme from E. coli, SEQ ID NO 6 (protein, listed as Helicobacter pylori) MDTPNKDDSIIRFSVSLQQNLLDELDNRIIKNGYSSRSELVRDMIREKLVEDNWAEDNPNDGSKIAVLVVIYDHHQRELNQRMIDIQHTSGTHVLCTTHIHMDGHNCLETIILKGNSLEIQRLQLEIGGLRGVKFAKLTKASSFEHNE | little or no binding and demetallation | little or no binding and demetallation | little or no binding and demetallation | Ni-binding: Ni (II) ions bound [2, 7]: 2 Ni (II), |
| HypA: nickel chaperone from H. pylori, SEQ ID NO 1, His-tagged, expressed in E. coli (protein, listed as Bradyrhizobium japonicum, His-tag) MCTVCGCSDGKASIEHAHDHHHDHGHDHDHGHDGHHHHHHGHDQDHHHHHDHAHGDAGLLDCGANPAGQKITGMSSDRIIQVERDILGKNDRLAADNRARFRADEVLAFNLVSSPGAGKTSLLVRAVSELKDSFAIGVIEGDQQTSNDAERIRATGVPAIQVNTGKGCHLDAAMVGEAYDRLPWLNGGLLFIENVGNLVCPAAFDLGEACKIVVFSTTEGEDKPLKYPDMFAASSLMLINKIDLASVLDFDLARTIEYARRVNPKIEVLTLSARTGEGFAAFYAWIRKRMAATTPAAMTAAE | did not display Ni(II)-protoporphyrin (IX) binding or demetallation capabilities | 59% | neither binding nor demetallation was observed | Ni-binding: Ni (II) ions bound ([2]; per dimer): 2 Ni (II) ions per Ni (II) per dimer |
| E. coli HypB: nickel chaperone HypB from E. coli, SEQ ID NO 2 (protein, listed as Escherichia coli) MCTTCGCGEGNLYIEGDEHNPHSAFRSAPFAPAARPKMKITGIKAPEFTPSQTEEGDLHYGHGEAGTHAPGMSQRRMLEVEIDVLDKNNRLAERNRARFAARKQLVLNLVSSPGSGKTTLLTETLMRLKDSVPCAVIEGDQQTVNDAARIRATGTPAIQVNTGKGCHLDAQMIADAAPRLPLDDNGILFIENVGNLVCPASFDLGEKHKVAVLSVTEGEDKPLKYPHMFAAASLMLLNKVDLLPYLNFDVEKCIACAREVNPEIEIILISATSGEGMDQWLNWLETQRCA | 17% | 83% | Neither binding nor demetallation was observed | Kd of Ni-binding ([2]; N-terminal Ni binding domain): has micromolar; Kd of Ni-binding ([2]; SEQ ID NO: 12 binding sites in the C-terminal domain): subpicomolar; Ni-binding: Ni (II) ions bound ([2]; per monomer): 2 Ni (II) ions per Ni (II) per monomer |
| SlyD: nickel chaperone from E. coli, SEQ ID NO 4 (protein, listed as Escherichia coli) MKVAKDLVVSLAYQVRTEDGVLVDESPVSAPLDYLHGHGSLISGLETALEGHEVGDKFDVAVGANDAYGQYDENLVQRVPKDVFMGVDELQVGMRFLAETDQGPVPVEITAVEDDHVVVDGNHMLAGQNLKFNVEVVAIREATEEELAHGHVHGAHDHHHDHDHDGCCGGHGHDHGHEHGGEGCCGGKGNGGCGCH | 12% | no change was observed | only minimal changes to the Soret band were observed | Kd of Ni-binding ([2]; C-terminal metal-binding domain (MBD)): nanomolar Kd. |
